Laboratory results published in US11919930B2, “Odorant receptor co-receptor” (Sumitomo Chemical Company, Limited, priority 2016, dated 2024).
Where a chain is given by its changes, count along the chain named. “Also recorded” adds a separate entry of the source.

B1: Dm(NT-TM4)AaORCO: chimeric co-receptor: NT to TM4 (residues 1-234) from Drosophila co-receptor, IC2 to C-terminal domain from Aedes co-receptor; SEQ ID NO:71 (protein)
chain: MTTSMQPSKYTGLVADLMPNIRAMKYSGLFMHNFTGGSAFMKKVYSSVHLVFLLMQFTFILVNMALNAEEVNELSGNTITTLFFTHCITKFIYLAVNQKNFYRTLNIWNQVNTHPLFAESDARYHSIALAKMRKLFFLVMLTTVASATAWTTITFFGDSVKMVVDHETNSSIPVEIPRLPIKSFYPWNASHGMFYMISFAFQIYYVLFSMIHSNLCDVMFCSWLIFACEQLQHLKGIMRPLMELSATLDTYRPNSAALFRVASAGSKSELILNEEKDPDTKDFDLNGIYNSKADWGAQFRAPSTLQTFGDNGINGNPNGLTKKQELMVRSAIKYWVERHKHVVRLVSAIGETYGAALLLHMLTSTIKLTLLAYQATKIDALNVYGLTVIGYLVYALAQVFLFCIFGNRLIEESSSVMEAAYSCHWYDGSEEAKTFVQIVCQQCQKAMTISGAKFFTVSLDLFASVLGAVVTYFMVLVQLK
B2: Dm(NT-636)AaORCO: chimeric co-receptor: N-terminus to residue 212 from Drosophila co-receptor, residue 213 to C-terminus from Aedes co-receptor; SEQ ID NO:78 (protein)
chain: B1 chain with S213A, C216A, I225L, A227T
B3: Dm(792)AaORCO: chimeric co-receptor: N-terminus to residue 264 from Drosophila co-receptor, residue 265 to C-terminus from Aedes co-receptor; SEQ ID NO:74 (protein)
chain: B1 chain with R239K, T247S, V261S, A262L
B4: Aa(TM1-4Dm)AaORCO: chimeric co-receptor: first to fourth transmembrane domains from Drosophila co-receptor, other domains from Aedes co-receptor; SEQ ID NO:82 (protein)
chain: MNVQPTKYHGLVLDLMPNIRLMQGFGHFLFRYVNGPVLIKKVYSSVHLVFLLMQFTFILVNMAMNTGDVNELTANTITTLFFTHCITKFIYLAVNSEHFYRTLGIWNQPNSHSLFAESDARYHSIALAKMRKLFFLVMLTTVASATAWTTITFFGDSVKNVFDKETNETYTVEIPRLPIKAWYPWDAMHGMFYMISFAFQIYYVLFSMIHSNLCDVMFCSWLIFACEQLQHLKGIMRPLMELSATLDTYRPNSAALFRVASAGSKSELILNEEKDPDTKDFDLNGIYNSKADWGAQFRAPSTLQTFGDNGINGNPNGLTKKQELMVRSAIKYWVERHKHVVRLVSAIGETYGAALLLHMLTSTIKLTLLAYQATKIDALNVYGLTVIGYLVYALAQVFLFCIFGNRLIEESSSVMEAAYSCHWYDGSEEAKTFVQIVCQQCQKAMTISGAKFFTVSLDLFASVLGAVVTYFMVLVQLK
B5: Aa(NT-TM4)AmORCO: chimeric co-receptor: NT to TM4 from Aedes co-receptor, IC2 to C-terminal domain from Apis co-receptor; SEQ ID NO:108 (protein)
chain: MNVQPTKYHGLVLDLMPNIRLMQGFGHFLFRYVNGPVLIRKLYSWWNLIMILLQYFAIMGNLVMNTGDVNELTANTITTLFFTHSVTKFIYVAVNSEHFYRTLGIWNQPNSHSLFAESDARYHSIALAKMRKLLVMVMVTTVLSVVAWITITFFGDSVKNVFDKETNETYTVEIPRLPIKAWYPWDAMSGVPYFFSFIYQAYFLLFSMCQANLADVMFCSWLLFTCEQLQHLKNIMKPLMEFSATLDTVVPNSGELFKAGSAEQPKEQEPLPPVTPPQGENMLDMDLRGIYSNRTDFTTTFRPTAGMTFNGGVGPNGLTKKQEMLVRSAIKYWVERHKHIVRLVTAIGDAYGVALLLHMLTTTITLTLLAYQATKIHAVDTYAASVVGYLLYSLGQVFMLCIFGNRLIEESSSVMEAAYSCHWYDGSEEAKTFVQIVCQQCQKAMSISGAKFFTVSLDLFASVLGAMVTYFMVLVQLK
B6: Dm(TM1-4Aa)AaORCO: chimeric co-receptor: amino-terminal domain, EC1, IC1, EC2 from Drosophila co-receptor, other domains from Aedes co-receptor; SEQ ID NO:86 (protein)
chain: MTTSMQPSKYTGLVADLMPNIRAMKYSGLFMHNFTGGSAFMRKLYSWWNLIMILLQYFAIMGNLVLNAEEVNELSGNTITTLFFTHSVTKFIYVAVNQKNFYRTLNIWNQVNTHPLFAESDARYHSIALAKMRKLLVMVMVTTVLSVVAWITITFFGDSVKMVVDHETNSSIPVEIPRLPIKSFYPWNASSGVPYFFSFIYQAYFLLFSMCQANLADVMFCSWLLFTCEQLQHLKGIMRPLMELSATLDTYRPNSAALFRVASAGSKSELILNEEKDPDTKDFDLNGIYNSKADWGAQFRAPSTLQTFGDNGINGNPNGLTKKQELMVRSAIKYWVERHKHVVRLVSAIGETYGAALLLHMLTSTIKLTLLAYQATKIDALNVYGLTVIGYLVYALAQVFLFCIFGNRLIEESSSVMEAAYSCHWYDGSEEAKTFVQIVCQQCQKAMTISGAKFFTVSLDLFASVLGAVVTYFMVLVQLK
B7: Ag(NT-TM4)AmORCO: chimeric co-receptor: NT to TM4 from Anopheles co-receptor, IC2 to C-terminal domain from Apis co-receptor; SEQ ID NO:114 (protein)
chain: MQVQPTKYVGLVADLMPNIRLMQASGHFLFRYVTGPILIRKVYSWWTLAMVLIQFFAILGNLATNADDVNELTANTITTLFFTHSVTKFIYFAVNSENFYRTLAIWNQTNTHPLFAESDARYHSIALAKMRKLLVLVMATTVLSVVAWVTITFFGESVKTVLDKATNETYTVDIPRLPIKSWYPWNAMSGPAYIFSFIYQIYFLLFSMVQSNLADVMFCSWLLLACEQLQHLKNIMKPLMEFSATLDTVVPNSGELFKAGSAEQPKEQEPLPPVTPPQGENMLDMDLRGIYSNRTDFTTTFRPTAGMTFNGGVGPNGLTKKQEMLVRSAIKYWVERHKHIVRLVTAIGDAYGVALLLHMLTTTITLTLLAYQATKIHAVDTYAASVVGYLLYSLGQVFMLCIFGNRLIEESSSVMEAAYSCHWYDGSEEAKTFVQIVCQQCQKAMSISGAKFFTVSLDLFASVLGAMVTYFMVLVQLK

System: odorant receptor AaOR8
Test: Aequorin luminescence measurement in HEK293FT cells co-expressing AaOR8 and a co-receptor, 1-octen-3-ol added
Format: cell-based
Conditions: 1-octen-3-ol 10^-4 to 10^-10 M; for intensity of response (relative amount of luminescence) to 1-octen-3-ol: compared to cells that expressed original AaORCO or DmORCO
Method: HEK293FT cells (purchased from invitrogen, Inc.) were inoculated into 10-cm Petri dishes at a concentration of 3×10^6 cells/Petri dish, and the cells were cultured in DMEM medium containing 10% FBS (manufactured by Nacalai Tesque, Inc.) for about 24 hours under the conditions of 37° C. and 5% CO2. 3 μg of any one of the co-receptor expression plasmids produced, 1.5 μg of any one of the odorant receptor expression plasmids produced, and 8 μg of Aequorin expression plasmid were mixed with 12.5 μL of Plus reagent and 31.25 μL of LIPOFECTAMINE LTX (manufactured by Invitrogen, Inc.), and the mixture was maintained for 30 minutes. Subsequently this liquid mixture was transfected into the above-mentioned cells. After 4 hours from the initiation of transfection, the cells were inoculated onto a 96-well plate at a concentration of 9×10^4 cells/well, and the cells were cultured in DMEM medium containing 10% FBS (manufactured by Nacalai Tesque, Inc.) for about 24 hours under the conditions of 37° C. and 5% CO2. Thereby, transformed cells having a co-receptor expression plasmid, an odorant receptor expression plasmid, and an aequorin expression plasmid transiently incorporated therein were obtained.
Aequorin is activated when hound to a calcium ion, and oxidizes a substrate such as coelenterazine, thus emitting light. […] Therefore, whether an odorant receptor complex functions an ion channel as a result of addition of a substance to be detected, can be measured from the change in the amount of luminescence.
A culture fluid of the transformed cells was removed, and the medium was exchanged with Hanks-HEPES (20 mM, pH 7.4) including Assay buffer (0.5 μM coelenterazine h (manufactured by Promega Corporation) and 0.3% BSA. culture system was left to stand for another 4 hours at room temperature. Subsequently, a substance to be detected, which corresponded to an odorant receptor, was added to the cell culture using FLEXSTATION 3 (manufactured by Molecular Devices, LLC), and at the same time, the amount of luminescence of the cells was measured. As a control substance, the amount of luminescence in the cells to which dimethyl sulfoxide had been added was designated as 1, and the amount or luminescence of cells to which the substance to be detected was added was calculated as a relative value.
(§1) Cells into which: • an expression plasmid of odorant receptor AaOR8; • an expression plasmid of any one of co-receptor AaORCO or DmORCO, or various chimeric co-receptors Dm-AaORCO having different positions of recombination [Dm(NT-EC1)AaORCO, Dm(NT-TM3)AaOROC, Dm(NT-TM4)AaORCO, Dm(NT-TM5)AaORCO, or Dm(NT-TM6)AaORCO]; and • an aequorin expression plasmid had been incorporated were used, and the amount of luminescence was measured as explained above. 1-Octen-3-ol was used as a substance to be detected, and 1-octen-3-ol was added to the culture fluid at a concentration of 10^−4 M, 10^−5 M, 10^−6 M, 10^−7 M, 10^−8 M, 10^−9 M, or 10^−10 M. The results are presented in FIG. 1.
as §1, with “AmORCO” for “AaORCO”, “Dm-AmORCO” for “Dm-AaORCO”, “[Dm(NT-TM3)AmOROC, Dm(NT-TM4)AmORCO, Dm(NT-TM5)AmORCO,” for “[Dm(NT-EC1)AaORCO, Dm(NT-TM3)AaOROC, Dm(NT-TM4)AaORCO, Dm(NT-TM5)AaORCO,”, “Dm(NT-TM6)AmORCO];” for “Dm(NT-TM6)AaORCO];”, “2. […]” for “1.”

[1] = compared to cells that expressed original AaORCO or AmORCO

Molecule | intensity of response (relative amount of luminescence) to 1-octen-3-ol | also measured
B1 | responded more strongly to 1-octen-3-ol; also recorded: the intensity of response to 1-octen-3-ol was higher | 
B2 | the intensity of response to 1-octen-3-ol was decreased | 
B3 |  | intensity of response to 1-octen-3-ol (compared to cells that expressed original AaORCO): the intensity of response to 1-octen-3-ol was decreased
B4 | the intensity of response to 1-octen-3-ol was decreased | 
B5 |  | response (relative amount of luminescence) to 1-octan-3-ol [1]: responded more strongly to 1-octan-3-ol
B6 | the intensity of response to 1-octen-3-ol was decreased | 
B7 |  | concentration of 1-octan-3-ol at which cells responded [1]: responded to 1-octan-3-ol at a lower concentration
